From the nanobody polyreactivity screen of Harvey et al. (2022)

Assay: yeast display, Sf9 membrane polyspecificity reagent, FACS + sequencing; frameworks hold sequencing errors
Method in brief: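 Polyreactivity labels are assigned by the sorting gate from which each nanobody was recovered. The gates were low and high (top ~1%), set on anti-HA fluorescence for expression and streptavidin fluorescence for reagent binding. Before sorting, galactose-induced (36–48 hours) yeast display cells were stained for 1 hour at 4 °C with 10% biotinylated, detergent-solubilized Sf9 membrane reagent.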

Row | Sequence | polyreactivity (PSR sort gate)
1 | QVQLVESGGGLVQAGGSLRLSCAASGNIFDEYTMGWYRQAPGKEREFVAGISDDGDTSYADSVKGRFTISRDNAKNTVYLQMNSLKPEDTAVYYCNADDLSYYESYWGFLYDYWGQGTQVTVSS | low polyreactivity
2 | QVQLVESGGGLVQAGGSLRLSCAASGRIFTGYAMGWYRQAPGKEREFVAAITGRGGSTYYADSVKGRFTISRDNAKNTVYLQMNSLKPEDTAVYYCNALPRSPWYYRGDYWGQGTQVTVSS | high polyreactivity
3 | QVQLVESGGGLVQAGGSLRLSCAASGYTFGTYAMGWYRQAPGKERELVATISIGGITYYADSVKGRFTISRDNAKNTVYLQMNSLIPEDTAVYYCAKAVTDPTSRSDPTGDDYWGQGTQVTVSS | low polyreactivity
4 | QVQLVESGGGLVQAGGSLRLSCAASGRTRFYAMGWYRQPPGKEREMVAAISGSSGSTYYADSVKGRFTISRDNAKNTVYLQMNSLKPEDTAVYYCAADFWRFYYEYDYWGQGTQVTVSS | low polyreactivity
5 | QVQLVESGGGLVQAGGSLRLSCAASGFTFVNYAMGWYRQAPGKERELVAAISSGGRTYYADSVKGRFTISRDNAKNTVYLQMNSLKPEDTAVYYCAARYKGRAIWMDYWGQGTQVTVSS | high polyreactivity
6 | QVQLVESGGGLVQAGGSLRLSCADCGSIFSSNAKGWYRQEPGKERELVAAISRSACSTYYADSVKGRFTISRDIAKNTVYLQMNSLKQEDTAVYYCNGVTRLGTYDYWGQGSQVTVSS | high polyreactivity
7 | QVQLQESGGGLVQAGGSLRLSCAASGSISRYYDMGWYRQAPGTEREFVAGISGGAITYYADRVKGRFTISRDNAKNTVYLQMNSLKPEDTAVDYCAADTGVYLYHSYWGQGTQVTVSS | low polyreactivity
8 | QVQLVDSGGGLVQAGGSLRLTCAASGGIFKRYAMGWYRQAPGKERELVAAISGRGGGTYYADSVKGRFTISRDNAKNTVYLQMNSLKPEDTAVYYCNARLSWSAFGYWGQGTQVTVSS | high polyreactivity
9 | QVQLVESGGGLVQAGGSLRLRCAASGFIFRWYAMGWYRQAPGKERELVARISNGGSTYYADSVKGRFTISRDNAKKTVYLQMNSLKPEDTAVYYCAARLPYGYYSAGYYYWGQGTQVTVSS | high polyreactivity
10 | QFQLVESGGGLVQAGGSLRLSCAASGRTFSWSAMGWYRQAPGKERELVAAISASGGRTYYADSVKGRFTISRDNANNSVYLQMNSLKPEDTAVYYCAKVVKKIEFDYWGQGTEVTVSS | high polyreactivity
11 | QVQLVESGGGIVQAGGSLRLSCAASGFIFDVYAMGWYRQAPGKERELVAAISRSGGSTYYADSVKGRFTISRDNAKNTVYLQMNSLKPEDTAVYYCATDLLNNVDYDYWGQGTQVTVSS | low polyreactivity
12 | QVQLVESGGRLVQAGGSLRLSSAPSGSIFFWYAMGWYRQAPGKERELVAAITQRTGSTYYADSVKGRFTISRDNAKNTVYLQMNSLKPEDTAVYYCAAKRLRRSFTGNYWGQGTQVTVSS | high polyreactivity
13 | QVQLVESGGGLVQAGGSLRLSCAASGRTSSSNAMGWYRQAPGKERELVATISRTGSTYYADSVKGRFTISRDNAKNTVYLQMNSLKPEDTSVYYCNRYFSEALLHGSCYNRYYYWGQGTQVTVSS | low polyreactivity
14 | QVQLVDSGGGLVQAGGSLRVSCAASGLIFTRNAMGWYRPAPGKERELVAAISSSGGSTYYADSVKGRFTISRDNAKNTVYLQLNSLKPEDTAVYYCATDAAYLFTAYDYWGQGTQVTVSS | low polyreactivity
15 | QVQLVESGRGLVQAGGSLRLSCAASGFTFYYYAMGRYRQAPGKERELVAAISTRDGNTYYADSVKARFTISRDNAKNTVYLQMKSLKTEVTAVYYCAAAYFRYYPYDYWGQGTLVTVSS | low polyreactivity
16 | QVHLVESGGGLVKAGGSLRLSCAASGSTKNYVMGWYRQAPGKERELVAAISRGSSTYYADSVKGRFTISRDNAKNTVYLQMNSLKPEDTAVYYCAARGPWQAPYDYWGQGTQVTVSS | high polyreactivity
17 | QVQRVESGGALVQAGGSLRLSCAASGSIIGINAMGWYRPAPGKERELVAAINGGGSTYYADSVKGRFTISRDNAKNTVYLQMHSLKPEDTAVYYCAAEWGTSWYDYRGQGTQVTVSS | low polyreactivity
18 | QVQLVESRGGLVQAGGSLRLSCAASGSIFPVYAMGWYRQATGKERELVASISSSGGRTYYADSVKGRFTISRDNAKNTVYLQMNSLKPEDTAVYYCAAGAFHGVFWYEYWGQGTQVTVSS | high polyreactivity
19 | QVQLVESGGGLVQAGGSLRLSCAASGGIFDNYAMGWYRQAPGKEREFVAVISSGGTTNYADSVKGRFTISRVNAKNTVYLQMNSLKPEDTAVYYCAADYDYRQGYDSVHLDYWGQGTQVTVSS | low polyreactivity
20 | QDQLVESGGGLVQAGGSLRLSCAASGSTLDGNAMGWYRQAPGKERELVAGIDTGGSTYYADSVKGRFTISRDNAKNTVYLQMNSLKPEDTAVYYCAATDREDYDYWGQGTQVTVSS | low polyreactivity
21 | QVQLVESGGGLVQAGGSLRLSCAASGITFRFNAMGWYRQAPGKERELVAAITSSGGRTYYADSVKGRFTISRDNAKNTVYLQMNSLKPEDTAVYYCNVRRLASYSFPYGYWGQGTQVTVSS | high polyreactivity
22 | QVQREESGGGLVQAGGSLRLSCPASGITFWGYVMGWYRQAPGKERELVAAISSSGGRTYYADSVKGRFTISRDNAKNTVYLQMNSMKPEDTAVYYCAARFLYANGDSVDYDYWGQGTQVTVSS | high polyreactivity

Row | Sequence | polyreactivity (PSR sort gate)
23 | QVQLVESGGGLVQAGGSLRLSCAASGSTFVHYAMGWYRQAPGKERELVAAINDGGSTHYADSVKGRFTISRDNAKNTVYLQMNSLKPEDTAVYYCAAEYVWYRYPDYWGAYDYWGQGTQVTVSS | low polyreactivity
24 | QVQLVESGGGLVQAGGSLRLSCAASGRTFYYYAMGWYIQAPGKEREFVASISYSGARTYYADSVKGRFTISRDNAKNTVYLQMNSLKPEDTAVYYCNRYASNYGYIDYWGQGTQVTVSS | high polyreactivity
25 | QVQLVESGGGLVQAGGSLRLSCAASGRIITAYYAMGWSRQAPGKERELVASISSSGTSTYADSVKGRFTISRDNAKNTVYLQMNSLKPEDTAVYYCATRKLRTRRYDYGYWGQGTQVTVSS | low polyreactivity
26 | QVQMQESRGGLVQAGGSLRLSCAASGYISYLDFMGWYRQAPGKERELVAGITTGATTNYADSVKGRFTISRDNGKNIVYQQMNSLKPEDTAVYFCAVIGGDTRGHPYWGQGTQLTVSS | low polyreactivity
27 | QVQLVESGGGLVQAGGSLRLSCAASGSTFSTYAMGWYRPAPGKERELVAAISRRGTNTYYADSVKGRFTISRDNAKNTVYLQMNSLKPEDTAVYYCAARSRSLRVYNRVYEVNEMDYWGQGTQVTVSS | low polyreactivity
28 | QDQLVESGGGLVQAGGSLRLICAASGSTLPRYTMGWYRQAPGKERELVAAISFSGSSTYYADSVKGRFTISRDNAKNTVYLQMNSLKPEDTAVYYCRYGYNYWGQGTQVTVSS | high polyreactivity
29 | QVQLVESGGGLVQAGGSLLLSCAASGRTILTYALGWNRQAPGKERDLVAAISKRGGSTYYADSVKGRFTISRDNAKNTVYLQRNSLKPEDTAVYYCAADNVNHYGYWGQGTQVTVSS | high polyreactivity
30 | QVQLVESGGGLVQAGGSLRLSCAASGRIFYRYAMGWYRQAPGKERELVAAIRYSGGRTYYADSVKGRFTISRDNAKNTVYLQMNSLKPEDTAVYDCAADGHWYYAPFGGGDYENDYWGQGTQVTVSS | low polyreactivity
31 | QVQLVESGGGLVQAGGSLRLSCAASGFHFGSYAMGWNRQAPGKERELVASISSAGRTYYADSVKGRFTISRDNAKNTVYSQMNSLKPEDTAVYYCAAESGYPVYTYVSSGDYWGQGTQVTVSS | low polyreactivity
32 | QVQLVESGGGLVQAGGSLRLSCAASGFTFDYYAMGWYRQAPGKERELVAAITSGSITYYADSVKGRFTISRDNAKNTVYLQMNSLKPEDTAVYSCAAVGLVRYGYWGQGTQVTVSS | high polyreactivity
33 | QVQLVESGGGLVQAGGSLRLSCAASGSIFGAYAMGWYRQAPGKERELVASITGNGGSTYYADSVKGRFTISRDNAKNTVYLQMNSLKPEDTAVYDCAADDYSTRYRWFYYGSPYYYWGQGTQVTVSS | high polyreactivity
34 | QVQLVESGGGLVQAGGSLRLSCAASGRIFVTNTMGWYRQAPGKERELVAAIDNSAGSTYYADSVKGRFTISRDNAKNTVYLQMNSLKPEDTAVYYCAADYPPYYGYGYWGQGTQVSVSS | low polyreactivity
35 | QVQLVESGGALVQAGGSHRLSCAASGIIFDYNAAMGWYRQAPGKERELVAAISISGGSTYYADSVKGRFTISRDNAKNTVYLQMNSPKPEDTAVSYCAAVNYEWNYGYDYWGPGTQVTVSS | low polyreactivity
36 | QVQLVESGGGLLQAGGSLRLSCAASGVIFSWYAMGWYRQAPGKERELVAAINWSGDSTYYADSVKGRFTISRDNAKNTVYLQMNSLKPEDTAVYYCAADPSYWGDPYDYWGQGTQVTVSS | high polyreactivity
37 | QVQLVESGGGLVQAGGSLRLSCAASGSTFHTYTMGWYRQAPGKERELVAGISRSGGSTYYADSVKGRFTISRDNAKNTVYLQMNSLKPEDTAVYYCNALSSKTDTYDYWGQGTQVTVSS | high polyreactivity
38 | QVQLVESGGGLVQAGGSLRLSCAASGITFSLYAMGWYRQAPGKERELVAAIDWSSGSTYYADSVKGRFTISRDNAKNTVYLQMNSLKPEDTAVYYCAAEYVHHASGDFSTLYYYWGQGTQVTVSS | low polyreactivity
39 | QVQLVESGGGLVQAGGSLRLSCAASGFIFADNTMGWNRQAPGKERELVAAISRRGGSTYYADSVKGRFTISRDNAKNTVYLQMNSLKPEDTAVYYCAARPFVKHDYWGQGTQVTVSS | high polyreactivity
40 | QVQLVESGGGLVHAGGSLRLSCAASGRIFVRYAMGWYRQAPGKERELVAAISSSGSSTYYADSVKGRFTISRDNAKNTVYLQMNSLKPEETAVYYCAAASVRYPRYEYWGQGTQVTVSS | high polyreactivity
41 | QVQLVESAGGLVQAGGSLRLSCAASGLIFYSYAMGWYRQAPGKERELVASITTRGSSTYYADSVKGRFTISRDNAKNTVYLQMNSLKPEDTAVYYCAADRLYYRYPPDTGYGYWGQGTQVTVSS | low polyreactivity
42 | QVQLVESGGGLVQAGGSLRLSCAASGGIFYGYAMGWYRQAPWKERELVAAISSTGGRTYYADSVKGRFTISRDNAKNTVYLQMNSLKPEVTAVYYCAAEDFTRQFEYWGQGTQVTVSS | low polyreactivity
43 | QVQLVESGGGLVQAGGSLRLSCAASGRTFYYYAMGWYRQAPGKERELVARISRGGSTNYADSVKGRFTISRDNAKNTVYLQMNSLKPEDTAVYYCAKTISYTGRFWGYDYWGQGTQVTVSS | high polyreactivity
